Bridge positions count the residues as written; N and C are the ends. Peptide text beside a SMILES is read from it. * marks the point of attachment. X1 = N[C@@H](CSC1CC(=O)N(CC2CCC(C(=O)*)CC2)C1=O)C(=O)NCCCC[C@@H](C(=O)O)N(CCN(CC(=O)O)CC(=O)O)CCN(CC(=O)O)CC(=O)O
Experiments:
in vivo [1] = settings: male, Swiss, mouse, heart, iv, mean ± S.E.M.
Description: (§1) MI was induced in 10- to 12-week old male Swiss mice by ligation of the left anterior descending coronary artery (LAD) (n = 7), as previously described. The angiogenesis imaging protocol was performed 7 days after the LAD ligation. A group of non-operated male Swiss mice (n = 5) was used as control. A variable number of animals were available for analysis per experiment. For SPECT scans, seven MI mice and five control mice were used while for biodistribution purposes ≥5 MI mice and ≥4 control mice were used. Furthermore, a group of six 10- to 12-week old male Swiss mice were bilaterally, subcutaneously implanted in the flanks with Matrigel (Table 1). […] All animals were held under the guidelines of the animal care facility (Maastricht University). All animal experiments were approved by the Committee for Animal Welfare of Maastricht University.
Mice were anesthetised with isoflurane (induction 2.5%; maintenance; 1.5%), a catheter was placed in the tail vein and the animals were positioned in the micro-SPECT camera (MiLabs, Utrecht, The Netherlands).
U-SPECT-II reconstruction software version 2.38 (MiLabs, Utrecht, The Netherlands) was used to reconstruct images. ^99mTc and ^111In images were reconstructed by selecting the photopeak (PP) and background (BG) windows as indicated in Figure 1.
To allow quantification of radiotracer uptake in vivo, conversion factors (CFs) were determined for the 0.6-mm collimator system in a representative phantom (20 ml) for ^99mTc and/or ^111In. During the SPECT reconstruction, the total amount of counts was distributed over the different voxels, resulting in a counts/voxel expression for the average concentration of counts. Taking into account the voxel volume (Vv), the CFs are calculated using equation (a):a ConversionfactorMBq=ActivityconcentrationMBq/ml/SPECTcountspervoxel/Vvml
(§2) The PMOD 2.95 cardiac tool PCARD (PMOD Technologies, Zürich, Switzerland) was used to segment the heart in the 17-segment model according to the American Heart Association (AHA) guidelines. For both the ^99mTc-sestamibi and ^111In-DTPA-cNGR images, the uptake was measured for each segment and expressed as mean standardised uptake value (SUVmean) using equation (b).b SUV=SPECTcountspervoxel×CF/VvMBq/ml×Bodyweightg/InjecteddoseMBq
For body weight, we assumed that 1 g of body weight equalled 1 ml.

in vivo [2] = settings: 2 h p.i., gamma counting, mean ± SEM; for urinary excretion (urine radioactivity): i.v.; for tissue uptake at 2 h: male, Swiss, mouse, iv, total radioactivity
Description: In order to quantify the absolute uptake of ^111In-DTPA-cNGR in the different heart pieces, gamma counting was performed using an automated NaI(Tl) gamma counter (Wallac Wizard, Turku, Finland). Additionally, we dissected the vital organs of the mice to study overall biodistribution. The uptake of ^111In-DTPA-cNGR was determined 2 h post-injection (p.i.) for both MI (n ≥ 5) and control animals (n ≥ 4). Data were expressed as percentage of injected dose per gram tissue (%ID/g). Urinal excretion was expressed as %ID.

[3] = Matrigel plug model, ex vivo SPECT of explanted Matrigels; type: in vivo; settings: male, Swiss, mouse, total radioactivity, six mice, mean ± SEM
Description: as §1, §2

CC(=O)N[C@H]1CSSC[C@@H](C(=O)NCC(=O)NCC(=O)N[C@@H](CCCCNC(=O)C2CCC(CN3C(=O)CC(SC[C@H](N)C(=O)NCCCC[C@@H](C(=O)O)N(CCN(CC(=O)O)CC(=O)O)CCN(CC(=O)O)CC(=O)O)C3=O)CC2)C(N)=O)NC(=O)[C@H](CCCNC(=N)N)NC(=O)CNC(=O)[C@H](CC(N)=O)NC1=O (stereo partly drawn) [^111In-DTPA-cNGR, metal not drawn] (Ac-CNGRCGGK(X1)-NH2; disulfide 1-5)
SUV (in vivo [1]; AHA segment 5 (basal inferolateral), segment 5. Basal inferolateral, MI mice n = 7, 7 days after LAD ligation, in vivo SPECT): 0.23 ± 0.03 SUV
SUV (in vivo [1]; AHA segment 5 (basal inferolateral), segment 5. Basal inferolateral, healthy control mice n = 5, in vivo SPECT): 0.14 ± 0.04 SUV
SUV (in vivo [1]; segment 1 basal anterior, total radioactivity, healthy control mice n = 5, in vivo SPECT): 0.16 ± 0.05 SUV
SUV (in vivo [1]; segment 1 basal anterior, total radioactivity, segment 1. Basal anterior, MI mice n = 7, 7 days after LAD ligation, in vivo SPECT): 0.24 ± 0.04 SUV
SUV (in vivo [1]; segment 2 basal anteroseptal, total radioactivity, healthy control mice n = 5, in vivo SPECT): 0.16 ± 0.05 SUV
SUV (in vivo [1]; segment 2 basal anteroseptal, total radioactivity, segment 2. Basal anteroseptal, MI mice n = 7, 7 days after LAD ligation, in vivo SPECT): 0.21 ± 0.03 SUV
SUV (in vivo [1]; segment 3 basal inferoseptal, total radioactivity, healthy control mice n = 5, in vivo SPECT): 0.13 ± 0.06 SUV
SUV (in vivo [1]; segment 3 basal inferoseptal, total radioactivity, segment 3. Basal inferoseptal, MI mice n = 7, 7 days after LAD ligation, in vivo SPECT): 0.2 ± 0.02 SUV
SUV (in vivo [1]; segment 4 basal inferior, total radioactivity, healthy control mice n = 5, in vivo SPECT): 0.15 ± 0.05 SUV
SUV (in vivo [1]; segment 4 basal inferior, total radioactivity, segment 4. Basal inferior, MI mice n = 7, 7 days after LAD ligation, in vivo SPECT): 0.23 ± 0.03 SUV
SUV (in vivo [1]; segment 6 basal anterolateral, total radioactivity, healthy control mice n = 5, in vivo SPECT): 0.18 ± 0.06 SUV
SUV (in vivo [1]; segment 6 basal anterolateral, total radioactivity, segment 6. Basal anterolateral, MI mice n = 7, 7 days after LAD ligation, in vivo SPECT): 0.26 ± 0.04 SUV
SUV (in vivo [1]; segment 7 mid anterior, total radioactivity, healthy control mice n = 5, in vivo SPECT): 0.15 ± 0.05 SUV
SUV (in vivo [1]; segment 7 mid anterior, total radioactivity, segment 7. Mid anterior, MI mice n = 7, 7 days after LAD ligation, in vivo SPECT): 0.21 ± 0.02 SUV
SUV (in vivo [1]; segment 8 mid anteroseptal, total radioactivity, healthy control mice n = 5, in vivo SPECT): 0.14 ± 0.06 SUV
SUV (in vivo [1]; segment 8 mid anteroseptal, total radioactivity, segment 8. Mid anteroseptal, MI mice n = 7, 7 days after LAD ligation, in vivo SPECT): 0.2 ± 0.02 SUV
SUV (in vivo [1]; segment 9 mid inferoseptal, total radioactivity, healthy control mice n = 5, in vivo SPECT): 0.12 ± 0.06 SUV
SUV (in vivo [1]; segment 9 mid inferoseptal, total radioactivity, segment 9. Mid inferoseptal, MI mice n = 7, 7 days after LAD ligation, in vivo SPECT): 0.18 ± 0.03 SUV
SUV (in vivo [1]; segment 10 mid inferior, total radioactivity, healthy control mice n = 5, in vivo SPECT): 0.12 ± 0.05 SUV
SUV (in vivo [1]; segment 10 mid inferior, total radioactivity, segment 10. Mid inferior, MI mice n = 7, 7 days after LAD ligation, in vivo SPECT): 0.17 ± 0.03 SUV
SUV (in vivo [1]; segment 11 mid inferolateral, total radioactivity, healthy control mice n = 5, in vivo SPECT): 0.11 ± 0.04 SUV
SUV (in vivo [1]; segment 11 mid inferolateral, total radioactivity, segment 11. Mid inferolateral, MI mice n = 7, 7 days after LAD ligation, in vivo SPECT): 0.2 ± 0.03 SUV
SUV (in vivo [1]; segment 12 mid anterolateral, total radioactivity, healthy control mice n = 5, in vivo SPECT): 0.15 ± 0.05 SUV
SUV (in vivo [1]; segment 12 mid anterolateral, total radioactivity, segment 12. Mid anterolateral, MI mice n = 7, 7 days after LAD ligation, in vivo SPECT): 0.24 ± 0.01 SUV
SUV (in vivo [1]; segment 13 apical anterior, total radioactivity, healthy control mice n = 5, in vivo SPECT): 0.11 ± 0.03 SUV
SUV (in vivo [1]; segment 13 apical anterior, total radioactivity, segment 13. Apical anterior, MI mice n = 7, 7 days after LAD ligation, in vivo SPECT): 0.21 ± 0.02 SUV
SUV (in vivo [1]; segment 14 apical septal, total radioactivity, healthy control mice n = 5, in vivo SPECT): 0.12 ± 0.04 SUV
SUV (in vivo [1]; segment 14 apical septal, total radioactivity, segment 14. Apical septal, MI mice n = 7, 7 days after LAD ligation, in vivo SPECT): 0.2 ± 0.03 SUV
SUV (in vivo [1]; segment 15 apical inferior, total radioactivity, healthy control mice n = 5, in vivo SPECT): 0.1 ± 0.03 SUV
SUV (in vivo [1]; segment 15 apical inferior, total radioactivity, segment 15. Apical inferior, MI mice n = 7, 7 days after LAD ligation, in vivo SPECT): 0.18 ± 0.03 SUV
SUV (in vivo [1]; segment 16 apical lateral, total radioactivity, healthy control mice n = 5, in vivo SPECT): 0.14 ± 0.04 SUV
SUV (in vivo [1]; segment 16 apical lateral, total radioactivity, segment 16. Apical lateral, MI mice n = 7, 7 days after LAD ligation, in vivo SPECT): 0.22 ± 0.02 SUV
SUV (in vivo [1]; segment 17 apex, total radioactivity, healthy control mice n = 5, in vivo SPECT): 0.1 ± 0.03 SUV
SUV (in vivo [1]; segment 17 apex, total radioactivity, segment 17. Apex, MI mice n = 7, 7 days after LAD ligation, in vivo SPECT): 0.2 ± 0.03 SUV
urinary excretion (urine radioactivity) (in vivo [2]; MI mice (n ≥ 5)): 82.29 ± 4.87 %ID
urinary excretion (urine radioactivity) (in vivo [2]; healthy control mice (n ≥ 4)): 92.5 ± 1.17 %ID
tissue uptake at 2 h (in vivo [2]; heart, apical region, uptake in the apical region of the heart, infarcted hearts, MI mice (n ≥ 5)): 0.16 ± 0.0542 %ID/g
tissue uptake at 2 h (in vivo [2]; heart, apical region, uptake in the apical region of the heart, non-infarcted hearts, healthy control mice (n ≥ 4)): 0.02 ± 0.005 %ID/g
tissue uptake at 2 h (in vivo [2]; kidney, kidney uptake, MI mice (n ≥ 5)): 2.73 ± 0.42 %ID/g
tissue uptake at 2 h (in vivo [2]; kidney, kidney uptake, healthy control mice (n ≥ 4)): 4.04 ± 0.41 %ID/g
SUV ([3]; explanted control (PBS) Matrigel plug, control (PBS) Matrigels): 0.000222 SUV
SUV ([3]; explanted hFGF2-supplemented Matrigel plug, hFGF2-supplemented Matrigels): 0.000824 SUV
